Results on 3 substances are retold here after patent US20150064134A1.

Common to all, as to assay: cell-based or functional assay
Experiment [1] has as its target T1, BrSK2(h) (human) (UniProt Q8IWQ3).
T1 sequence (looked up): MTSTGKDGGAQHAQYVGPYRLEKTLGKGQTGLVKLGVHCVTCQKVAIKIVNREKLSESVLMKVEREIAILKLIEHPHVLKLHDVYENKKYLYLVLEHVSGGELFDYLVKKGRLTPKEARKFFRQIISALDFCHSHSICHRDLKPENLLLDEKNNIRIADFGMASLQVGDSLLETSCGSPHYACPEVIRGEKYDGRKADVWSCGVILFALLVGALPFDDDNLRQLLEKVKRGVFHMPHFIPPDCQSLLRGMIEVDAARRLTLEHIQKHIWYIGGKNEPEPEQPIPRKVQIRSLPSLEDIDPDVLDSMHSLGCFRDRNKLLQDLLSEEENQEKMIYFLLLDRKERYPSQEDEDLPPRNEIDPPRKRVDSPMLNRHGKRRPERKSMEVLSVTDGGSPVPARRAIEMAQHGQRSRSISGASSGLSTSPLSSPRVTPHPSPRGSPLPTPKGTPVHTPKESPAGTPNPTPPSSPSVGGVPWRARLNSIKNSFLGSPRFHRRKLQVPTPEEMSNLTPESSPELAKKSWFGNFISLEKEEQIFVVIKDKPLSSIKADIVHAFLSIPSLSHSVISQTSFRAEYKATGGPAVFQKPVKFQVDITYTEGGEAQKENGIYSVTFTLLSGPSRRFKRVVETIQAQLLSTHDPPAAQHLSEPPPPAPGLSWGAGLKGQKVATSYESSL

For experiment [2], the target named is CDK6/cyclinD3(h) (human) (UniProt Q00534).
Chain of CDK6/cyclinD3(h) (human) (Q00534 whole entry, chain 1 of 2): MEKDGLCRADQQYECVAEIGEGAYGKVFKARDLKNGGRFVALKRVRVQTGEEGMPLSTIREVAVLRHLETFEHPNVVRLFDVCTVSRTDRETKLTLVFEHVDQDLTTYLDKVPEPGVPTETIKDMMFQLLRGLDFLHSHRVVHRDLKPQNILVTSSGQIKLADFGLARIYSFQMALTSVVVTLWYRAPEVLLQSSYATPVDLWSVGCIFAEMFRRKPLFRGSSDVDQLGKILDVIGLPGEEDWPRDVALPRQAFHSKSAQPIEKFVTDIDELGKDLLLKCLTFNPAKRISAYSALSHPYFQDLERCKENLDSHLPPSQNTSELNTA
Chain of CDK6/cyclinD3(h) (human) (P30281 whole entry, chain 2 of 2, further chain): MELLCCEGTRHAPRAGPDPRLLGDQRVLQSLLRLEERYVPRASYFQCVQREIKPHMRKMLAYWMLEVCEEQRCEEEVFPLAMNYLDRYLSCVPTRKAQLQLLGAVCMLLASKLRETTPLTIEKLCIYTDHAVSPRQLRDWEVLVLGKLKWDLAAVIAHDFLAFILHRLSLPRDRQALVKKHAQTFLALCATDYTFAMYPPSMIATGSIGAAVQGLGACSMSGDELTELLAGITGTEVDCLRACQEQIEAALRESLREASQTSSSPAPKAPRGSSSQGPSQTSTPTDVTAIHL
The target in experiment [3] is T2, EphA1(h) (human) (UniProt P21709).
T2 sequence (looked up): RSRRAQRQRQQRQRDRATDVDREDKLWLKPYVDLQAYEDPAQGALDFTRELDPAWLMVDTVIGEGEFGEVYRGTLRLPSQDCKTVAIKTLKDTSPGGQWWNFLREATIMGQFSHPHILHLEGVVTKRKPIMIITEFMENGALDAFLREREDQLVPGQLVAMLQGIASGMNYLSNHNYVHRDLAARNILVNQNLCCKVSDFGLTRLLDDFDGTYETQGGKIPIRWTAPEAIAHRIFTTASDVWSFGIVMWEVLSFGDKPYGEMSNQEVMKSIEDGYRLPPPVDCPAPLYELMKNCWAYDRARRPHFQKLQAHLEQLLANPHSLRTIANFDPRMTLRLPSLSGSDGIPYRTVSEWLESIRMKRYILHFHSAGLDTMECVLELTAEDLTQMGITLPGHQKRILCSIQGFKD

The target in experiment [4] is Fes(h) (human) (UniProt P07332).
In experiment [5] the target is T3, GRK7(h) (human) (UniProt Q8WTQ7).
T3 sequence (looked up): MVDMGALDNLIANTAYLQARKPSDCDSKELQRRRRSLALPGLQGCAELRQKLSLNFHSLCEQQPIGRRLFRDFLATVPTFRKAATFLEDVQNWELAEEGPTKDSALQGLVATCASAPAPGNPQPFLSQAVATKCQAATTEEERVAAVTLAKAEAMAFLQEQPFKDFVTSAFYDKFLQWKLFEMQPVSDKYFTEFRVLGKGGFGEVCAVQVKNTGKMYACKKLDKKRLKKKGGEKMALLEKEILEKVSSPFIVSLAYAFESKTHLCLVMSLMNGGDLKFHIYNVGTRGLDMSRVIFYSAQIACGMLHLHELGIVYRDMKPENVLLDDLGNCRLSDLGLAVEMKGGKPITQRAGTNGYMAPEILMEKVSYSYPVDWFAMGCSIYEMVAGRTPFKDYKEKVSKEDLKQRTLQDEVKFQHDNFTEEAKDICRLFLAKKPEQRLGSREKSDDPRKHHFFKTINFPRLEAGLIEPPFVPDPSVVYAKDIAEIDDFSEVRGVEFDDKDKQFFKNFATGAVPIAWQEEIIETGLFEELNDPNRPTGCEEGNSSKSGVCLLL

The target of experiment [6] is LIMK1(h) (human) (UniProt P53667).
Experiment [7] has as its target LOK(h) (human) (UniProt O94804).
Experiment [8] deals with MSK1(h) (human) (UniProt O75582).
The target in experiment [9] is T4, PDK1(h) (human) (UniProt O15530).
T4 sequence (looked up): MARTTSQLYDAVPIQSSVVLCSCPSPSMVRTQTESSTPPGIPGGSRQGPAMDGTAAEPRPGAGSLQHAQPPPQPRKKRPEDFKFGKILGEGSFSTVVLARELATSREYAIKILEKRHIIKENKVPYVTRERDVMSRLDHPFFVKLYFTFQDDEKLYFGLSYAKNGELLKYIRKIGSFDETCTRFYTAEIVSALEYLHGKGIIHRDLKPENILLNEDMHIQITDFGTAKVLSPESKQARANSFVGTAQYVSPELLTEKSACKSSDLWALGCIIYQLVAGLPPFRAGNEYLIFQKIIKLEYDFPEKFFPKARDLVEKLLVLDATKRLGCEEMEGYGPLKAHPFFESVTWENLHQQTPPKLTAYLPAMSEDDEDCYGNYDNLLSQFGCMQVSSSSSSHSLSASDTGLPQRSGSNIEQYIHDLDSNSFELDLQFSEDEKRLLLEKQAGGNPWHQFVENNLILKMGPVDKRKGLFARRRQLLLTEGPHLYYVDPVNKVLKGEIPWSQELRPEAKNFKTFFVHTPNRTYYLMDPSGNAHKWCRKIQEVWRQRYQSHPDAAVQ

Experiment [10] deals with Ron(h) (human) (UniProt Q04912).
Chain of Ron(h) (human) (Q04912 983-1400 limits assumed): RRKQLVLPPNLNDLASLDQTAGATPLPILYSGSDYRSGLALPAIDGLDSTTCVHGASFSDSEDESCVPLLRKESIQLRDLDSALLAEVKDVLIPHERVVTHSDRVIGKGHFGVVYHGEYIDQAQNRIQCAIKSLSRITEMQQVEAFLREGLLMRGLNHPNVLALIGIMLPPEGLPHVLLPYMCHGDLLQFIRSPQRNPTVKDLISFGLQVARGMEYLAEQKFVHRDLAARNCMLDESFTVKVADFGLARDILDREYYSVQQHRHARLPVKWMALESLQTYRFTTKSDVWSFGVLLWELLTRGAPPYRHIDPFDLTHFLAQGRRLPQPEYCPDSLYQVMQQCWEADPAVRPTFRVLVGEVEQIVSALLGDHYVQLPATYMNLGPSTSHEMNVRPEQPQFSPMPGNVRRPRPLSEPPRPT
Experiment [11] has as its target Rsk2(h) (human) (UniProt P51812).
Experiment [12] addresses T5, SGK2(h) (human) (UniProt Q9HBY8).
T5 sequence (looked up): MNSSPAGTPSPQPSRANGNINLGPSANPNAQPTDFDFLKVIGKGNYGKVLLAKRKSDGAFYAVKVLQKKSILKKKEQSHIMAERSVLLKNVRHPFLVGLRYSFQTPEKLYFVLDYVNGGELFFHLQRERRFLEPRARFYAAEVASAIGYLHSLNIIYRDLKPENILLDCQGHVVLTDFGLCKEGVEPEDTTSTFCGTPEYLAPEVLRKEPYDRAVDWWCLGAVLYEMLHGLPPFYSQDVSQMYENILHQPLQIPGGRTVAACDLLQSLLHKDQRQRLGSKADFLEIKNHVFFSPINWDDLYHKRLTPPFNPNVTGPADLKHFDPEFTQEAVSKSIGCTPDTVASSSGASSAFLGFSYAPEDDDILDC

Experiment [13] has as its target WNK3(h) (human) (UniProt Q9BYP7).

Chain of Rsk2(h) (human) (P51812 whole entry): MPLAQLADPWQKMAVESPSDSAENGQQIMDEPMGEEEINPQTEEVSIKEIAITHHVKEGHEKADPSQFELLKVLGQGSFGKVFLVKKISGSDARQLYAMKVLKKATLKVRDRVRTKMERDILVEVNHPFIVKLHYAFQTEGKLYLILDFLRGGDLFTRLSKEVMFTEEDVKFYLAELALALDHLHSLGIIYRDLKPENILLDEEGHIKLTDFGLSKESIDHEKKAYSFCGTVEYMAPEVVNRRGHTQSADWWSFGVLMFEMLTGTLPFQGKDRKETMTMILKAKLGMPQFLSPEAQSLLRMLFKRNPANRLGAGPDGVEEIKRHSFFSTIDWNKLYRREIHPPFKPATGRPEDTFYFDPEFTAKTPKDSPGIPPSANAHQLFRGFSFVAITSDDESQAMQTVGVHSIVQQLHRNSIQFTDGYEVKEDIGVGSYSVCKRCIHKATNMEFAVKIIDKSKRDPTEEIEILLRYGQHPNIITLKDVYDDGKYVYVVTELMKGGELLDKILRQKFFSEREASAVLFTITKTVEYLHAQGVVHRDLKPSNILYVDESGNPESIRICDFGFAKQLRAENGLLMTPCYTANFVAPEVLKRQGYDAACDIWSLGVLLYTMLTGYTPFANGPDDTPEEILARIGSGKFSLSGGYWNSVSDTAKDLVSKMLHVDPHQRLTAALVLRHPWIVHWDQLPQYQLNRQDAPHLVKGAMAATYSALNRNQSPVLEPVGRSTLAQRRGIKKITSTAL

On to MMI-0300 (peptide), for which the % activity at 100 µM in experiment [1] is 83%; in experiment [2], 86%; in experiment [3] it was 73%; in [4], 20%; in [5], 122%; in experiment [6] it was 88%. Also, the % activity at 100 µM was determined as 37% in [7]; 32% in experiment [8]; 135% in experiment [9]; 93% in [10]; 51% in experiment [11]; 56% in experiment [12]. In addition, the % activity at 100 µM in experiment [13] came to 77%.
On to MMI-0500 (peptide), for which the % activity at 100 µM in [1] was 84%; in experiment [2] it was 23%; in experiment [3] it was 40%; in [4] it was 23%; in [5], 93%; in [6], 87%. For the same substance, the % activity at 100 µM in experiment [7] is 7%; in experiment [8], 8%; in experiment [9], 178%; in [10], 46%; in experiment [11], 14%; in experiment [12], -1%. Further, the % activity at 100 µM in [13] was 9%.
MMI-0400 (peptide): the % activity at 100 µM in experiment [1] worked out at 86%; in [2], 85%; in experiment [3], 61%; in [4] it was 16%; in experiment [5], 100%; in experiment [6], 92%. In addition, the % activity at 100 µM in experiment [7] worked out at 18%; in experiment [8] it was 28%; in [9], 159%; in experiment [10] it was 79%; in experiment [11], 38%; in experiment [12], 98%. Moreover, the % activity at 100 µM in experiment [13] turned out to be 74%.
